Measured values reported in patent US20060099646A1, “Bret assay” (priority 2002, published 2006).

Columns and labels:
[1] = Precipitation / stability of diluted DeepBlueC substrate solution; format: physicochemical
Experimental: One of the problems associated with setting up an assay, such as, e.g. a high through-put screening (HTS) assay, is to prepare a suitable solution of the substrate, DeepBlueC™. If the stock solution of DeepBlueC™ is diluted to the relevant concentration for use in a BRET assay in D-PBS as recommended, it will form a precipitate within 10 to 20 minutes, making it virtually impossible to use for a HTS assay.
(§1) Assay: • 1. Dilution of DeepBlueC to 100 μM in 40% ethanol in D-PBS with 1000 mg/l L-Glucose (#14287) (light sensitive!!). The DeepBlueC™ stock solution comprises 1 mM DeepBlueC™ in 100% v/v EtOH.
(§2) The dilution of DeepBlueC in 40% ethanol/buffer is essential for the stability of DeepBlueC. If DeepBlueC is diluted in buffer alone, it will precipitate within 10 to 20 minutes, making it virtually impossible to use the assay in HTS mode. […] 100 μl of resuspended cells were transferred into wells in 96-well white optiplate plate • 3. 12 μl agonist was added. • 4. 5 μl of diluted DeepBlueC/well was added, and the plate was read.

renilla luciferase = assay: Light emission from renilla luciferase after addition of DeepBlueC solution (FIG. 3)
Experimental: as §2

NK-1/Rluc receptor = target: T1, NK-1/Rluc receptor (Homo sapiens, UniProt P25103); assay: NK-1 receptor internalization assay; format: cell-based; conditions: COS7 cells, co-expressed with NK-1/Rluc; 125I-SP 10 min at 37 C; versus WT β-arrestin; FIG. 1
T1 construct: expressed in transfected cells; host or cells: COS7
Experimental: COS7 cells in 75 cm^2 flask (3×10^6 cells/flask) were used for transfection. NK-1/Rluc receptor (2 μg cDNA/flask) was coexpressed together with 6 μg GFP/β-arrestin 2, 6 μg GFP^2/β-arrestin R169E, 6 μg GFP^2/β-arrestin Lys 373 stop or 6 μg GFP^2/β-arrestin R393E, R395E. At the end of transfection period (3-5 hours), cells were washed twice with PBS, trypsinased and plated at a density of 2.5×10^5 cells per well in 12-well plates. After 48 hours, cells were washed once with assay medium (HEPES-modified DMEM with 0.1% BSA, pH 7.4) and incubated in assay medium for at least 1 hour before being incubated with ^125I-labeled SP (30000 cpm/well) in 0.5 ml assay medium 10 min at 37 C. Cells were then transferred onto ice and washed twice with ice-cold PBS. Subsequently, the extracellular receptor-associated ligand was removed by washing once with 1 ml of acid solution (50 mM acetic acid and 150 mM NaCl, pH 2.8) for 12 min. The acid wash was collected to determine the surface-bound radioactivity, and the internalized radioactivity was determined after solubilizing the cells in 0.2 M NaOH and 1% SDS (NaOH/SDS) solution. Nonspecific binding for each time point was determined under the same conditions in the presence of 1 μM unlabeled agonist (SP). After subtraction of nonspecific binding, the internalized radioactivity was expressed as a percentage of the total binding.

NK1 receptor = target: T2, NK1 receptor (Homo sapiens, UniProt P25103); assay: BRET assay, NK1-Rluc / β-arrestin-2-GFP; format: cell-based; conditions: NK1 receptor (class B) coexpressed with β-arrestin mutant; versus WT; FIG. 2
T2 construct: expressed in transfected cells
Experimental: (§3) Cell Preparation for BRET Assay: • 1. 48 hrs after transfection with 2 μg receptor-Rluc DNA (e.g. NK1-Rluc or β2AR-Rluc) and 5 μg β-arrestin-2 DNA (e.g. the R393E; R395E mutant) (for assays with GRK also 2 μg GRK DNA, e.g. GRK-5) media was removed and cell washed 1× with PBS • 2. 1 ml 1× trypsin (T75 flask) was added and incubated 3-5 min at 37 C • 3. 10 mL complete media was added. • 4. Cells were transferred to tube and spun down (5 min, 800 rpm) • 5. Media was removed, and cells resuspended in 10 ml PBS and counted, spun down (5 min, 800 rpm) • 6. Resuspended in D-PBS with 1000 mg/l L-Glucose (#14287) to a density of 2×10^6 cells/ml • 7. Cells were left at room temperature for at least 30 min, to stabilize readings.
as §1
(§4) The dilution of DeepBlueC in 40% ethanol/buffer is essential for the stability of DeepBlueC. If DeepBlueC is diluted in buffer alone, it will precipitate within 10 to 20 minutes, making it virtually impossible to use the assay in HTS mode. […] 100 μl of resuspended cells were transferred into wells in 96-well white optiplate plate • 3. […] 5 μl of diluted DeepBlueC/well was added, and the plate was read.
(§5) Antagonist: • 1. […] 6 μl of diluted DeepBlueC/well was added, and the plate read.

β2AR/Rluc receptor = target: T3, β2AR/Rluc receptor (Homo sapiens, UniProt P07550); assay: β2AR internalization assay; format: cell-based; conditions: COS-7 cells, co-expressed with β2AR/Rluc; isopterenol 10 min at 37° C; versus WT β-arrestin; FIG. 1
T3 construct: expressed in transfected cells; host or cells: COS-7
Experimental: COS-7 cells in 75 cm^2 flask (3×10^6 cells/flask) were used for trasfection. β2AR/Rluc receptor (1.3 μg cDNA/flask) was coexpressed together with 6.5 μg GFP^2/β-arrestin 2, 6.5 μg GFP^2/β-arrestin R169E, 6.5 μg GFP^2/β-arrestin Lys 373 stop or 6.5 μg GFP^2/β-arrestin R393E, R395E. Receptor internalization assay was based on protocol described by Barak and Caron J Recept Signal Transduct Res 1995 January-March;15(14):677-90. At the end of transfection period (3-5 hours), cells were washed twice with PBS, trypsinesed and plated at a density of 2.5×10^5 cells per well in 12-well plates. After 48 hours, cells were washed once with assay medium (HEPES-modified DMEM with 0.1% BSA, pH 7.4) and serum-starved in the same medium for additional 2-3 hours before being stimulated with […] isopterenol for 10 min at 37° C. Stimulation was stopped by washing the cells with ice-cold PBS. Cells were then subjected to [^125I]-pindolol binding at 4° C. for 3 h and the fraction of internalized receptors determined relative to unstimulated cells. Non-specific binding was determined under the same conditions in the presence of 1 μM pindolol.

β2AR receptor = target: T4, β2AR receptor (Homo sapiens, UniProt P07550); assay: BRET assay, β2AR-Rluc / β-arrestin-2-GFP; format: cell-based; conditions: β2AR receptor (class A) coexpressed with β-arrestin mutant; versus WT; FIG. 2
T4 construct: expressed in transfected cells
Experimental: as §3, §1, §4, §5

T1 sequence (P25103 whole entry): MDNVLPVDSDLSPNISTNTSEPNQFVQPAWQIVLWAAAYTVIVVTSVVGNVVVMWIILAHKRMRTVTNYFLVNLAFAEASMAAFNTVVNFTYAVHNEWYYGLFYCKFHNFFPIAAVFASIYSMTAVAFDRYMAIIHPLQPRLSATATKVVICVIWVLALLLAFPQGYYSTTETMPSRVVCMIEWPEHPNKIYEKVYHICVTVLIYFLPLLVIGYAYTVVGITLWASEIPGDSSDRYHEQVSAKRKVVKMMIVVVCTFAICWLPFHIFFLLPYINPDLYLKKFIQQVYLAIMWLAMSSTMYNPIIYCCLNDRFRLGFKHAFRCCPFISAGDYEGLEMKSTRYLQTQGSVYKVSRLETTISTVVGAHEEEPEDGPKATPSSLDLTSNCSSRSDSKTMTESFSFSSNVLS
T2 sequence (P25103 whole entry, species assumed): as the sequence (P25103 whole entry) above

| Compound | stability of diluted solution ([1]; diluted in 40% ethanol in D-PBS with 1000 mg/l L-Glucose) | time to formation of precipitate ([1]; stock solution diluted in D-PBS / buffer alone, no ethanol) | stability of light emission signal (renilla luciferase; DeepBlueC dissolved in buffer with 0% ethanol) | stability of light emission signal (renilla luciferase; DeepBlueC dissolved in buffer with 6% ethanol) | stability of light emission signal (renilla luciferase; DeepBlueC dissolved in buffer with 40% ethanol) | internalization of the NK1-R (NK-1/Rluc receptor) | specific BRET ratio (BRET signal) (NK1 receptor) | internalization of the β2AR (β2AR/Rluc receptor) | specific BRET ratio (BRET signal) (β2AR receptor) |
| --- | --- | --- | --- | --- | --- | --- | --- | --- | --- |
| O=c1c(Cc2ccccc2)nc2c(Cc3ccccc3)[nH]c(-c3ccccc3)cn1-2 [DeepBlueC] | stable for hours | 10 to 20 min | rapidly decreases | rapidly decreases | stable for the duration of the experiment | – | – | – | – |
| human β-arrestin-2 373 stop mutant: truncated human β-arrestin-2 lacking clathrin and/or AP2 binding sites; used as GFP fusion | – | – | – | – | – | inhibiting the internalization | the effect is less pronounced | inhibiting the internalization | increasing the BRET signal significantly |
| human β-arrestin-2 R393E; R395E mutant: human β-arrestin-2 wherein amino acids 393 and 395 have been changed from arginine to glutamic acid; used as GFP fusion | – | – | – | – | – | inhibiting the internalization | the effect is less pronounced | inhibiting the internalization | increasing the BRET signal significantly |
